For test [1], the target named is T1, recombinant OX40 protein with a His tag (Cat: 10481-H08H, Sino Biological) (UniProt P43489 29-216).
T1 construct: Bought protein; not shown: His tag
T1 sequence (looked up): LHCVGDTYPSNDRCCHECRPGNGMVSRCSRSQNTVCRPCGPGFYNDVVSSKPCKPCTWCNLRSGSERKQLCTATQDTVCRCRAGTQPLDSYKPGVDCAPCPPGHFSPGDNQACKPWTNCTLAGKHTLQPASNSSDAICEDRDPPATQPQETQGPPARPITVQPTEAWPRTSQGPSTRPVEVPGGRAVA
Description: SPR (BIAcore T-200), antibody captured by anti-human IgG, OX40-His flowed; Test 1. From the text:
(§1) The anti-OX40 antibodies were characterized for their binding kinetics and affinity by SPR assays using BIAcore™ T-200 (GE Life Sciences). Briefly, anti-human IgG antibody was immobilized on an activated CM5 biosensor chip (Cat: BR100530, GE Life Sciences). An antibody with human IgG Fc region was flowed over the chip surface and captured by anti-human IgG antibody. Then a serial dilution of recombinant OX40 protein with a His tag (Cat: 10481-H08H, Sino Biological) was flowed over the chip surface and changes in surface plasmon resonance signals were analyzed to calculate the association rates (ka) and dissociation rates (kd) by using the one-to-one Langmuir binding model (BIA Evaluation Software, GE Life Sciences). The equilibrium dissociation constant (KD) was calculated as the ratio kd/ka.

For test [2], the target named is T2, full-length human OX40 expressed on HuT78 cells (HuT78/OX40) (human, UniProt P43489 29-277).
T2 sequence: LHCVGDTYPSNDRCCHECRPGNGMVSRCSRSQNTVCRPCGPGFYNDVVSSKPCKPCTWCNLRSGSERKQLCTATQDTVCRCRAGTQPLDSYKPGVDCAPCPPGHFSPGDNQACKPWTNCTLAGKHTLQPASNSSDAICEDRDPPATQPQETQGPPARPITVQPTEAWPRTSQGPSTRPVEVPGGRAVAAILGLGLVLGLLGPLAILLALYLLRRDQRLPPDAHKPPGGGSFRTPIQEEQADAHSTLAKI
Description: cell-based or functional assay.

Test [3] concerns the target T1, recombinant OX40 protein with a His tag …. Description: SPR (BIAcore T-200), antibody captured by anti-human IgG, OX40-His flowed; Test 2.
Description: as §1

Test [4] has the same target. Description: Biacore SPR (set-up not named on the sheet; by Example 4 antibody captured, OX40-His flowed). A general note: In SPR one partner is held on a chip, and binding of the other changes the refractive index at the surface.

The results in this text go back to patent US20230002500A1 (BEIGENE, published 2023).

B1: 445-3 IgG4 (445-3 with the Fc domain of human IgG4 with S228P and R409K mutations) (antibody, V domains shown)
VH: QVQLVQSGAEVKKPGSSVKVSCKASGYKFTSYIIHWVRQAPGQGLEWMGYINPYNEGTRYNQKFQGRVTLTADKSTSTAYMELSSLRSEDTAVYYCARGYYGSSYAMDYWGQGTTVTVSS
VL: DIQMTQSPSSLSASVGDRVTITCRASQGISNYLNWYQQKPDGAIKLLIYDASTLYSGVPSRFSGSGSGTDFTLTISSLQPEDFATYYCQQYSKLPYTFGGGTKVEIK
Turning to B1, in test [1], the koff was determined as 0.00161 s⁻¹ and the kon was determined as 161000 M⁻¹ s⁻¹.

B2: humanized anti-OX40 monoclonal antibody 445-3 (antibody, V domains shown)
VH: B1 VH
VL: B1 VL
notes: Human IgG1 wild type format
Regarding B2, in test [2], the “ADCC, LDH release, NK92MI/CD16V effector cells and HuT78/OX40 target cells, EC50” value came out at 27 ng/mL; the “IL-2 production of HuT78/OX40 cells co-cultured with HEK293/OS8Low-FcγRI cells (ELISA), EC50” value was 0.06 ng/mL. Moreover, in test [1], the koff came to 0.00167 s⁻¹ and the kon was determined as 182000 M⁻¹ s⁻¹. In test [3], the koff worked out at 0.00159 s⁻¹ and the kon turned out to be 163000 M⁻¹ s⁻¹. For the same molecule, in test [4], the off-rate constant (koff) came out at 0.00148 s⁻¹ and the kon turned out to be 174000 M⁻¹ s⁻¹.

For orientation: koff means a measure of how fast the partners let go of each other. By kon is commonly meant the second-order rate constant of association.
